According to the supplement of paper PMC12764529:
± gives the half width of the 95% confidence interval.

Experiments:
[1] = folding stability dG unfold (combined trypsin and chymotrypsin); higher = more stable
In short: (§1)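 Digests were run with trypsin and chymotrypsin at 11 concentrations in threefold dilutions, plus a no-protease condition, on designed mini-proteins in a PA-tagged cDNA display construct. The mini-proteins were under 80 residues, had no cysteine, and were kept only when AlphaFold2 dimer inter-PAE was above 15. After sequencing, Bayesian fitting of the counts gave K50, from which unfolding free energy was derived against a sequence-predicted unfolded-state K50 and a shared folded-state K50, per protease or combined.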

[2] = folding stability dG unfold from trypsin proteolysis; higher = more stable
In short: as §1

[3] = folding stability dG unfold from chymotrypsin proteolysis; higher = more stable
In short: as §1

| Sequence | folding stability dG unfold [1] [kcal/mol] | folding stability dG unfold [2] [kcal/mol] | folding stability dG unfold [3] [kcal/mol] |
| --- | --- | --- | --- |
| SAGGSAGGSAGGDLNDAEIIDIYRDPDSDYYYAVFRGPDGGTYLVRFDPNSDRVEVIPLSAGGSAGGSAGGS [r10_674_TrMRF] | 3.05 ± 0.059 | 2.27 ± 0.1 | 3.387 ± 0.024 |
| SAGGSAGGSKKKLTLTLKVEYVDEETGEKRTVTLTITAESEEEAKAALEELAKKLPPGARIEVSAGGSAGGS [r20_211_TrROS_Hall] | 4.21 ± 0.19 | 3.3 ± 0.16 | 4.44 ± 0.11 |
| SAGGKTYKIKVTVEVKNENGETEKKEYVIEVKENKTPEEIAEELKKKLGVEKVEIVDPKTGKKYTIELSAGG [r13_663_TrROS_Hall] | 2.83 ± 0.084 | 1.9 ± 0.052 | 3.185 ± 0.029 |
| SAGGSAGGSGMMYKVTVEIYNPANGEKIGTIEREVTSEEEAKAEIEKELPLENVKVKITIEGPSAGGSAGGS [r12_578_JUSTAS] | 0.983 ± 0.25 | 0.846 ± 0.084 | 0.818 ± 0.18 |
| SAGGSAGGSAGGEIKSGDKVVLVFNEDGKGYKAYYEEELEKLLKEDPKIKKVLVVDVPAESAGGSAGGSAGG [r7_118_TrMRF] | -0.429 ± 0.22 | -0.173 ± 0.064 | -1.04 ± 0.77 |
| SAGGMEKAIKEIKEAAKKGEEAVIVLPKNVDPSELISAIEKETGAKVEPLEVKPLPNGELVIKIKVKSAGGS [r16_318_TrMRF] | 1.89 ± 0.12 | 1.44 ± 0.1 | 2.23 ± 0.16 |
| SAGGKTISIEFYMPPGEPPPSIEEIAKELFPGYKDIKIKNIEIEDVEPDPDNGMKYVRVSFTIEVEPPSAGG [r13_10_TrROS] | 3.39 ± 0.25 | 3.25 ± 0.27 | 3.42 ± 0.23 |
| SAGMKVTTFTTPTRTVTVTLTPDGTVTVTVTDPSGNPTVTAPDGTPVASTTAPDGTTTFTLDPALFAAASAG [r5_457_JUSTAS] | 0.896 ± 0.073 | 0.717 ± 0.047 | 0.965 ± 0.1 |
| SAGGSAGGSAGPVTITIKVPKEDEEEIEALARELAAALPPPEGAKVTVERNEDGTITITLSAGGSAGGSAGG [r17_324_TrROS_Hall] | 1.62 ± 0.12 | 1.56 ± 0.15 | 1.6 ± 0.06 |
| SAGGSAGGSTIMFKVDSPDELIDKIKIPPGFRVEIMQTPDRYYVMIRPPPSPEQMAKREKNNGSAGGSAGGS [r12_274_TrROS] | 3.26 ± 0.41 | 3.35 ± 0.42 | 3.16 ± 0.23 |
| SAGMEKAINLAKEYAKKLGLPLESINVTEIGNSVIIEMKIPEKGETITVNIPIHPDGTISLNIKFEKKKSAG [r5_888_JUSTAS] | 2.09 ± 0.087 | 1.2 ± 0.037 | 2.623 ± 0.019 |
| SAGGSAPRVVRVETVTLTPPADSTVTARLLRLETPEGPRYVLAVRDPSTPVVVARPVPEGATLLEESAGGSA [r15_75_TrMRF] | -0.237 ± 0.11 | -0.581 ± 0.23 | -0.124 ± 0.1 |
| SAGGSMPKGQEVKIEIEHRRHNGRRYWRVSVEVPNGKDIEIPFDDPEEMPPEMKKQIENLAKEIVKSAGGSA [r2_17_TrROS] | 0.874 ± 0.26 | 0.146 ± 0.11 | 1.11 ± 0.25 |
| SAGGSAGGSAGKTVQIWIPPDEITPEALKSLAREGWKIKPIEIRRNPEDGWISITIELKPSAGGSAGGSAGG [r11_345_TrROS] | 0.619 ± 0.25 | 0.597 ± 0.076 | 0.451 ± 0.36 |
| SAGGLEIDTSDGNVKVTKVSTKTTVEKDPTNPDRYRIITSKEIKTEPVKPPDVKEGPPIGLNNPELLSAGGS [r16_395_JUSTAS] | 0.165 ± 0.49 | 0.475 ± 0.2 | 0.418 ± 0.47 |
| SAGGSAGGSAGGMEKVTEVKPVATLPNGTVVTETLVTYTAPNGPEIGEEVVLTEDPVPKSAGGSAGGSAGGS [r10_941_JUSTAS] | -0.455 ± 0.15 | -0.942 ± 0.22 | -0.408 ± 0.2 |
| SAGGSAGGPIKDSKGKFIVTFEFPNGLKKKFEVENIKNPEIEFNFNGKKVKTKIIEIKKGDESKSAGGSAGG [r6_575_TrMRF] | 0.0149 ± 0.12 | -0.117 ± 0.12 | -0.004 ± 0.21 |
| SAGGKPGKWRKVEIWLPPDMPDIIEEIAKNWPNVNVDTERHPENGWYPVTGYFPDPNGKPVAKIHIWSAGGS [r8_267_TrROS] | 0.65 ± 0.2 | 0.185 ± 0.064 | 0.933 ± 0.17 |
| SAGGSLKIKIRNPDGMPFKIDVVRYPNHIRIKFKFGNKPVAFMIDPESDTINFRIPGWPFQIEIEPSAGGSA [r2_194_TrROS] | 3.26 ± 0.15 | 2.96 ± 0.096 | 3.39 ± 0.092 |
| SAGGSAGGSKKKKKPKKKKYIVIKVDMSLEEVKKLISKLLGFEEGEKIEIVKVDPENKYIVIKSAGGSAGGS [r12_815_TrROS_Hall] | 2.08 ± 0.27 | 2.01 ± 0.072 | 2.35 ± 0.11 |
| SAGGSAGGSAGGSQDLVKITIKLPGGEEKEITTPAEEIDKAIKELGIKKEDVEILEITEVSAGGSAGGSAGG [r7_211_JUSTAS] | 1.34 ± 0.24 | 1.13 ± 0.093 | 1.56 ± 0.051 |

| Sequence | folding stability dG unfold [1] [kcal/mol] | folding stability dG unfold [2] [kcal/mol] | folding stability dG unfold [3] [kcal/mol] |
| --- | --- | --- | --- |
| SAGGSAGGSAGDDNDGKKKFPMTIKIPPIPIEIPPGMKITSWIPIRIPGGLEFPIIYITPSAGGSAGGSAGG [r11_388_TrROS] | 1.03 ± 0.098 | 0.923 ± 0.045 | 1.1 ± 0.12 |
| SERLKLKITIKNANGETYEVEIEFDLETNELTIKVKPVPALPPVTEKRVVKKDGKLVEETRTVLLSEEDLSA [r9_587_TrROS_Hall] | 1.74 ± 0.38 | 1.02 ± 0.16 | 1.83 ± 0.1 |
| SAGMSFTVTTVGSPGPTTPRVVIEPPDRVVVISRLPDGSYEVRYYDPSPPVELERRRLAPEEAIAELLSAGG [r19_188_JUSTAS] | 0.575 ± 0.077 | 0.385 ± 0.095 | 0.647 ± 0.098 |
| SAGGSAGGSAGGEEPVTFMVRIPIRRRDPDGNPEPVAEIDINVTMPPEDAERIIKELIKSAGGSAGGSAGGS [r10_574_TrROS] | -0.326 ± 0.22 | -0.245 ± 0.34 | -0.547 ± 0.76 |
| SAGGSAGGSALPEAEVLEVRFSPDGRRVDAVLRLDGELLVLRIDFPPDGTARIELYPAEDISAGGSAGGSAG [r3_167_TrMRF] | 2.07 ± 0.13 | 1.05 ± 0.065 | 2.43 ± 0.068 |
| SMTYSYGVDVSEDPNSDKTTATITTTSSDGSSSLSPEEVAAELAAEAKAAGYTVDVELRPGSVTITVTAPSA [r9_510_JUSTAS] | 0.354 ± 0.059 | 0.464 ± 0.018 | 0.108 ± 0.086 |
| SAGGSAGGSAGIRLDSLEEALKYIRKNFPPGRTVEIRVYDGDKPVEITVQVDENGDIKIVSAGGSAGGSAGG [r17_69_TrROS] | 3.19 ± 0.092 | 2.91 ± 0.15 | 3.227 ± 0.02 |
| SAGGEAEVVEPEEKLEIVDKETGKKITVYKVKNKETGEEVVLVEIEKNGKKYTVLMTKDELEALLKKSAGGS [r16_603_TrROS_Hall] | 2.98 ± 0.28 | 2.38 ± 0.21 | 3.29 ± 0.057 |
| SAGGGMSTLVRLPPGGVEEREVPPGTEADLNAEFSPESKLVVRTFDPATGRWTETVYEPGGVPTVLSSSAGG [r13_74_JUSTAS] | 3.41 ± 0.32 | 2.91 ± 0.082 | 3.65 ± 0.21 |
| SAGGSAGGSAGGSFKIKDIEVNPDALKKGNFIQIRIENGWVIHINPNGEIEVVELPPDASAGGSAGGSAGGS [r4_373_TrROS] | 1.25 ± 0.095 | 0.356 ± 0.083 | 1.59 ± 0.072 |
| SAGGSAGGSASSLEESLRAELPEGKPARIEVKVELEKTPNGKLKVKEVKVTVTLPNGPVVGSAGGSAGGSAG [r3_247_JUSTAS] | 1.24 ± 0.11 | 0.572 ± 0.077 | 1.52 ± 0.072 |
| SAGGSAGGSAGPMEVERETIMIPIDPDKGYYIMIDVWRYKNPGGPPFPAPSISIMDLDDLSAGGSAGGSAGG [r11_51_TrROS] | 2.68 ± 0.11 | 1.78 ± 0.072 | 3.11 ± 0.045 |
| SAGGSAGGSPVVTVENVTRPSDYYTYTFKLPDGTVITLDAKSEEEAREKAKELGLENLNFKTEESAGGSAGG [r6_601_JUSTAS] | 3.8 ± 0.14 | 3.15 ± 0.19 | 3.88 ± 0.13 |
| SAMVLDLTELLREKAAEIRKADPRPLTPEELRELAREAAEELAKETGKPITEIRVEETDEWPRITAVVLSAG [r14_147_JUSTAS] | 0.461 ± 0.24 | 1.04 ± 0.044 | -0.358 ± 0.3 |
| SMPEIKVEKKNGKLTITVPKGAKIKIKIEVNGKKIEKEVEVKEGETVTITIELPPNMPKDVKIKEIEIEKSA [r9_1152_TrROS_Hall] | 1.88 ± 0.13 | 1.61 ± 0.066 | 1.93 ± 0.13 |
| SMKIIIEIEVEPGKTEEEIKEEAEALAKELAKKLGLPKEAKVKIEKVKLEDGKLRYIITIEVDGKTIEFESA [r9_776_TrROS_Hall] | 3.75 ± 0.24 | 3.72 ± 0.29 | 3.63 ± 0.064 |
| SAGGSAKTIKIWIPVKGMTPEMLEEIARDILEELGMKVDIEPHPGDGYIEVTFKLPGKDIEIIIPWSAGGSA [r15_168_TrROS] | 2.61 ± 0.16 | 2.04 ± 0.062 | 3.04 ± 0.1 |
| SAGGPGWVTVEFWIPIEPDPNQTRDDVKEKAEEIVHEMAEYHPQFGITNVKVDVDPEEGWVKVSIVWPSAGG [r13_1011_TrROS] | 1.49 ± 0.24 | 1.47 ± 0.16 | 1.58 ± 0.15 |
| SASMTYTVTVTVSVKNPDGTPIGTIPITRTMNLDEAKVIVEKEIKKTVDELFPGKPANVTVDTTVTPLPSAG [r14_570_JUSTAS] | 0.899 ± 0.27 | 0.482 ± 0.13 | 1.6 ± 0.42 |
| SAGGSAGGEYEISIPNYELTEEKFDPNPGLLTVTYKDPEGKLVTITYKVKPDSIEKVKTETFEPSAGGSAGG [r6_719_JUSTAS] | 0.963 ± 0.064 | 0.569 ± 0.022 | 1.14 ± 0.049 |
| SAGGSAGGSAGGMYITFDFEVPPNNPEVIEELKSKGIEYKKIEPKPDKVKVKVIIPEKLLSAGGSAGGSAGG [r7_41_JUSTAS] | -0.38 ± 0.27 | -0.638 ± 0.3 | -0.12 ± 0.27 |
